The text below walks through data of paper PMC4973555, “Engineering Saccharomyces cerevisiae with the deletion of endogenous glucosidases for the production of flavonoid glucosides” (Microbial Cell Factories, 2016).

Substrate in this series: O=c1cc(-c2ccc(O)cc2)oc2cc(O)c(O)c(O)c12
The series can be described thus: HPLC glucosyltransferase assay, Lineweaver-Burk plot. Type of series: biochemical, Scutellaria baicalensis. The following applies: 2 mM UDP-glucose (saturating), 50 mM Tris-HCl pH 7.5, 30 °C.

B1: SbGT30 (Scutellaria baicalensis) (protein)
chain: MGQLHIVLVPMIAHGHMIPMLDMAKLFSSRGVRTTIIATPAFAEPIRKARESGHDIGLTTTKFPPKGSSLPDNILSLDQVTHDLLPHFFRALELLQEPVEEIMEDLKPNCLVSDMFLPWTTDSAAKFGIPRLLFHGTSLFARCFAEQMSLQKPYKNVSSDSEPFVLRGLPHEVSFVRTQIPGYELQEGGDDAFSKMAKQMRDADKKSYGDVINSFEELESEYVDHYKNVFGKKAWHIGPLSLCNNRAEQKSPIDDHECLAWLNSKKPNSVVYMCFGSMATFSPAQLHETAVGLESSGQDFIWVVRNGGENEDWLPQGFEERIKGKGLMIRGWAPQVVILDHPSTGAFVTHCGWNSTLEGICAGLPMVTWPVFAEQFYNEKLVTEVLKTGVSVGNKKWQRVGEWVGSEAVKEAVEWVMVGDGAAEMRSRANYYKEMARKAVEDGGSSYNNLNALIQELSAYVPPMKQGLN
notes: full-length cDNA in pTWIN1B; E. coli BL21 (DE3)
For the protein B1, the Km (in general, the substrate concentration at which the rate is half of its maximum) came to 188 µM.

B2: SbGT56 (Scutellaria baicalensis) (protein)
chain: MGQLHIVLVPMIAHGHMIPMLDMAKLFSSRGVKTTIIATPAFAEPIRKARESGHDIGLTTTKFPPKGSSLPDNIRSLDQVTGDLLPHFFRALELLQEPVEEIMEDLKPNCLVSDMFLPWTTDSAAKFGIPRLVFHGTSLFARCFSEQMSIQKPYKNVSSDSEPFVLRGLPHEVSFVRTQIPDYELQEGGDDAFSKMAKQMRDADKKSYGDVINSFEELESEYADYNKNVFGKKAWHIGPLKLFNNRAEQKSSQRGKESAIDDHECLAWLNSKKPNSVVYMCFGSMATFTPAQLHETAVGLESSGQDFIWVVRNGGKNEDWLPQGFEERIKGKGLMIRGWAPQVMILDHPSTGAFVTHCGWNSTLEGICAGLPMVTWPVFAEQFYNEKLVTEVLKTGVSVGNKKWQRVGEGVGSEAVKEAVERVMVGDGAAEMRSRAVYYKEMARKAVEEGGSSYNNLNALIQELSAYVPPMKQGLN
notes: as for B1
For B2, the Km came out at 222 µM.

B3: SbGT34 (Scutellaria baicalensis) (protein)
chain: MGQLHIVLVPMIAHGHMIPMLDMAKLFSSRGVKTTIIATPAFAEPIRKARESGHDIGLTTTKFPPKGSSLPDNIWSLDQVTDDLLPHFFRALELLQEPVEEIMEDLKPNCLVSDMFLPWTTDSAAKFGIPRLLFHGTSLFARCFAEQMSLQKPYKNVSSDSEPFVLRGLPHEVSFVRTQIPGYELQEGGDDAFSKMAKQMRDADKKSYGDVINNFEELESEYVDHYKNVFGKKAWHIGPLSLCNNRAEQKSPIDDHECLAWLNSKKPNSVVYMCFGSMATFTPAQLHETAVGLESSGQDFIWVVRNGGENEDWLPQGFEERIKGKGLMIRGWAPQVMILDHPSTGAFVTHCGWNSTLEGICAGLPMVTWPVFAEQFYNEKLVTEVLKTGVSVGNKKWQRVGEGVGSEAVKEAVERVMVGDGAAEMRSRAIYYKEMARKAVEEGGSSYNNLNALIEELSAYVPPMKQGLN
notes: as for B1
B3: the Km amounted to 121 µM.
